Test results: US20210301026A1 (ULTRAHUMAN TWELVE, published 2021)
Where two headings read alike, the source gives them in different places.

T1: monomeric cynomolgus monkey CSF1R ectodomain protein (cynomolgus monkey, UniProt P07333 20-517 (human entry))
T1 construct: also called monomeric cyno CSF1R; Cyno CSF1R
T1 chain: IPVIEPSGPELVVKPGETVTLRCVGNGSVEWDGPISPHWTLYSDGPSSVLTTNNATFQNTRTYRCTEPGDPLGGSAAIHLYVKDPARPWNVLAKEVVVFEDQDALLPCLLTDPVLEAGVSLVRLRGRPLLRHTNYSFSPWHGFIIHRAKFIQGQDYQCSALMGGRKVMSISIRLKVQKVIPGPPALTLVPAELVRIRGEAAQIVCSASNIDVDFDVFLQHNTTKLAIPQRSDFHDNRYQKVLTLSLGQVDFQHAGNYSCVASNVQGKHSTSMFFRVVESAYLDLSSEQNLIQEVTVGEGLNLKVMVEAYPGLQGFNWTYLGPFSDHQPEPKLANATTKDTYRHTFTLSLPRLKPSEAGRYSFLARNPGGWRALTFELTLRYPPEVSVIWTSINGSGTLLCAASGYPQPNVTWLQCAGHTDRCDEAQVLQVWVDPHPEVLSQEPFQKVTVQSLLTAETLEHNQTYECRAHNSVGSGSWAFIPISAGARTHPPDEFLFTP

T2: cynomolgus monkey CSF1R human Fc tagged recombinant protein (cynomolgus monkey, UniProt P07333 20-517 (human entry), limits assumed)
T2 construct: also called cyno CSF1R-Fc
T2 chain: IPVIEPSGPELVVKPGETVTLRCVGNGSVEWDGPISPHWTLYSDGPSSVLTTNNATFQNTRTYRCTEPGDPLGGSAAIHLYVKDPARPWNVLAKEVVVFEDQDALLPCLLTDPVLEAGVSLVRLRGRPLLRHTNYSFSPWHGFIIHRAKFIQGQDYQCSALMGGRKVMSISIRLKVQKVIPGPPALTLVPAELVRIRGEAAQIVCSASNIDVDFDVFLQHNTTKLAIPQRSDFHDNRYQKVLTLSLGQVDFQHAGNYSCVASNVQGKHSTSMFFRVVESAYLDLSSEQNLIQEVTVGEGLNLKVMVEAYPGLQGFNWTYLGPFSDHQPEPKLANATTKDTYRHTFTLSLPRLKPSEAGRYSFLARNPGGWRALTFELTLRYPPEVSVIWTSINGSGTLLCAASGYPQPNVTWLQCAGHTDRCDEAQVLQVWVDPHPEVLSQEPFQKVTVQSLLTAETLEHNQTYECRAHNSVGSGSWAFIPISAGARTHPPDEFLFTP


Tests used:
[1] = target: T3, monomeric human CSF1R ectodomain protein (human, UniProt P07333 20-517); test: SPR Biacore, IgG captured, monomeric CSF1R analyte
T3 construct: also called biotinylated monomeric human CSF1R
Protocol: (§1) Affinity (KD) of purified IgGs was determined via SPR with antigen in-solution on a Biacore 3000 (GE). A mouse anti-human antibody (CH1 specific) was immobilized on a CM5 Sensor Chip to a level of 2000 RU in acetate buffer at pH 4.5 using amine coupling following the Wizard instructions for two channels. One channel was used for background signal correction. The standard running buffer HBS-EP pH 7.4 was used. Regeneration was performed with a single injection of 10 μl of 10 mM Glycine at pH 1.5 at 20 μl/minute. IgG samples were injected for 2 minutes at 50 nM at 30 μl/min followed by and off-rate of 60 seconds. The monomeric ectodomain protein (human CSF1R or cynomolgus monkey CSF1R) was injected in two fold serial dilutions from 100 nM down to 3.1 nM, for 2 minutes at 30 μl/min followed by an off-rate of 300 seconds. The obtained sensorgrams were analysed using the Biacore 3000 evaluation (BIAevaluation) software. The KD was calculated by simultaneous fitting of the association and dissociation phases to a 1:1 Langmuir binding model.
(§2) Biacore analyses of binding affinity were performed for all IgGs to solution-phase, monomeric human and cyno CSF1R proteins (Table 6). […] Affinity differentials of less than 3-fold between human and cyno target orthologs are highly beneficial in pre-clinical drug development analyses as they allow more accurate design and interpretation of e.g. monkey safety, PK and PD modelling experiments.

[2] = target: T1, monomeric cynomolgus monkey CSF1R …; test: SPR Biacore, IgG captured, monomeric CSF1R analyte
Protocol: as §1, §2

[3] = target: T3, monomeric human CSF1R ectodomain protein; test: SPR Biacore, IgG captured, monomeric CSF1R analyte; remark: listed apart in the source
Protocol: as §1

[4] = target: T1, monomeric cynomolgus monkey CSF1R …; test: SPR Biacore, IgG captured, monomeric CSF1R analyte
Protocol: as §1

[5] = target: T3, monomeric human CSF1R ectodomain protein; test: AlphaScreen competition with mu0301 IgG4(S228P) for biotinylated monomeric human CSF1R
Protocol: The AlphaScreen assay (Perkin Elmer) was performed in a 25 μl final volume in 384-well white microtiter plates (Greiner). The reaction buffer contained 1×PBS pH 7.3 (Oxoid, Cat. nr. BR0014G) and 0.05% (v/v) Tween® 20 (Sigma, Cat. nr. P9416). Purified IgG samples were titrated in three fold serial dilutions starting at 500 nM final concentration and incubated with biotinylated human CSF1R for 20 minutes at room temperature. […] The emission of light was measured in the EnVision multilabel plate reader (Perkin Elmer) and analysed using the EnVision manager software. Values were reported as Counts Per Second (CPS) and corrected for crosstalk. The EC50 values were calculated using the […] in GraphPad Prism software (GraphPad Software, La Jolla, Calif.).

[6] = target: T2, cynomolgus monkey CSF1R human Fc tagged …; test: direct titration ELISA on coated cyno CSF1R-Fc, IgG4(S228P) format, OD 450 nm
Protocol: (§3) Binding and cross-reactivity of the lead panel to the recombinant proteins was initially assessed by binding ELISA. The human CSF1R human Fc tagged recombinant protein and the cynomolgus monkey CSF1R human Fc tagged recombinant protein were coated to the surface of MaxiSorp™ flat-bottom 96 well plate at 1 μg/ml. The purified IgG samples were titrated in two fold serial dilutions starting from 500 nM to 0.008 nM and allowed to bind to the coated antigens. The Fabs were detected using mouse anti-c-myc antibody followed by donkey anti-mouse IgG conjugated to horseradish peroxidase. The IgGs were detected using the mouse anti-human IgG conjugated to horseradish peroxidase. Binding signals were visualized with 3,3′,5,5′-Tetramethylbenzidine Substrate Solution (TMB) and the absorbance measured at 450 nm.

[7] = target: T4, human CSF1R human Fc tagged recombinant protein (human, UniProt P07333 20-517); test: direct titration ELISA on coated human CSF1R-Fc, IgG4(S228P) format, OD 450 nm
T4 construct: also called human CSF1R-Fc
Protocol: as §3

human insulin = target: T5, human insulin (human, UniProt P01308 25-54; P01308 90-110, limits assumed); test: ELISA on human insulin (development risk, polyreactivity), binding score
T5 construct: Coated antigen of the polyreactivity ('PK-risk indicator') ELISA
T5 sequence (P01308 25-54 limits assumed, chain 1 of 2): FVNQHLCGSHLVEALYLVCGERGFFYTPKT
T5 sequence (P01308 90-110 limits assumed, chain 2 of 2): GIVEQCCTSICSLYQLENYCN

Row | Binder | Kd [1] [nM] | koff [1] [s⁻¹] | kon [1] [M⁻¹ s⁻¹] | Kd [2] [nM] | koff [2] [s⁻¹] | kon [2] [M⁻¹ s⁻¹] | Kd [3] [nM] | koff [3] [s⁻¹] | kon [3] [M⁻¹ s⁻¹] | Kd [4] [nM] | koff [4] [s⁻¹] | kon [4] [M⁻¹ s⁻¹] | IC50 [5] [nM] | binding result [6] | binding result [7] | fold lower epitope competition than hu0301 [5] [fold] | binding result (human insulin)
1 | MH5 (antibody, human IgG4, V domains shown, Designer (maximally humanized) clone; tested as human IgG4(S228P)/Ckappa IgG; also called mAb-2) VH: QVQLVQSGAEVKKPGSSVKVSCKASGYTFSSYYMIWVRQAPGQGLEWMGDINPYNGGANYAQKFQGRVTITADESTSTAYMELSSLRSEDTAVYYCAREGPYFSNLYVMDYWGQGTLVTVSS VL: EIVLTQSPATLSLSPGERATLSCRASQSVSYEGENYLNWYQQKPGQAPRLLIYAASNRATGIPARFSGSGSGTDFTLTISSPEPEDFAVYYCQLSNEDLLTFGGGTKVEIK | 0.22 | 0.00036 | 1.7e+06 | 0.62 | 0.00031 | 500000 | 0.22 | 0.00036 | 1.7e+06 | 0.62 | 0.00031 | 500000 | 2.18 |  |  |  | 
2 | 29B07 (antibody, human IgG4, V domains shown, Library-derived clone, tested as human IgG4(S228P)/Ckappa IgG; framework residue limits counted on the grafts) VH: QVQLVQSGAEVKKPGSSVKVSCKASGYTFTSYYIIWVRQAPGQGLEWMGDINPYNGGATYAQKFQGRVTITADESTSTAYMELSSLRSEDTAVYYCAREPPYFSNLYVMDYWGQGTLVTVSS VL: EIVLTQSPATLSLSPGERATLSCRASQSVEYEGDNYLNWYQQKPGQAPRLLIYAASNRATGIPARFSGSGSGTDFTLTISSLEPEDFAVYYCQLSNQDLLTFGGGTKVEIK | 0.34 | 0.00051 | 1.5e+06 | 0.79 | 0.00025 | 310000 |  |  |  |  |  |  | 3.86 |  |  |  | 
3 | MH38 (antibody, human IgG4, V domains shown, Deimmunized MH5 derivative, human IgG4(S228P)/Ckappa IgG) VH: QVQLVQSGAEVKKPGSSVKVSCKASGYTFSSHYMIWVRQAPGQGLEWMGDINPYNGGANYAQKFQGRVTITADESTSTAYMELSSLRSEDTAVYYCAREGPYFSNLYVMDYWGRGTLVTVSS VL: EIVLTQSPATLSLSPGERATLSCRASQSVSYEGENYLNWYQQKPGQAPRSAIYAASNRATGIPARFSGSGSGTDFTLTISSPEPEDFAVYYCQLSNEDLLTFGGGTKVEIK |  |  |  |  |  |  |  |  |  |  |  |  |  | binds | binds |  | 
4 | 30D02 (antibody, human IgG4, V domains shown, Library-derived clone, tested as human IgG4(S228P)/Ckappa IgG; framework residue limits counted on the grafts) VH: QVQLVQSGAEVKKPGSSVKVSCKASGYTFSSYYMIWVRQAPGQGLEWMGDINPYNGGTTYAQKFQGRVTITADESTSTAYMELSSLRSEDTAVYYCAREGPYFSNLYVMDYWGQGTLVTVSS VL: EIVLTQSPATLSLSPGERATLSCRASQSVEYQGENYLNWYQQKPGQAPRLLIYAASNRATGIPARFSGSGSGTDFTLTISSLEPEDFAVYYCQLSNQDLLTFGGGTKVEIK | 0.48 | 0.00049 | 1e+06 | 1.7 | 0.00032 | 190000 |  |  |  |  |  |  | 3.92 |  |  |  | 
5 | MH4 (antibody, V domains shown, Designer clone, human IgG4(S228P)/Ckappa IgG) VH: QVQLVQSGAEVKKPGSSVKVSCKASGYTFSSYYMIWVRQAPGQGLEWMGDINPYNGGANYAQKFQGRVTITADESTSTAYMELSSLRSEDTAVYYCAREGPYFSNLYVMDYWGQGTLVTVSS VL: EIVLTQSPATLSLSPGERATLSCRASQSVSYQGENYLAWYQQKPGQAPRLLIYDASNRATGIPARFSGSGSGTDFTLTISSLEPEDFAVYYCQLSNQDLLTFGGGTKVEIK | 1.9 | 0.0024 | 1.3e+06 | 2.9 | 0.0014 | 470000 |  |  |  |  |  |  | 18.9 |  |  | > 2 | 
6 | MH14 (antibody, human IgG4, V domains shown, Deimmunized MH5 derivative, human IgG4(S228P)/Ckappa IgG) VH: QVQLVQSGAEVKKPGSSVKVSCKASGYTFSSAYMIWVRQAPGQGLEWMGDINPYNGGANYAQKFQGRVTITADESTSTAYMELSSLRSEDTAVYYCAREGPYFSNLYVMDYWGQGTLVTVSS VL: EIVLTQSPATLSLSPGERATLSCRASQSVSYEGENYLNWYQQKPGQAPRSAIYAASNRATGIPARFSGSGSGTDFTLTISSPEPEDFAVYYCQLSNEDLLTFGGGTKVEIK |  |  |  |  |  |  |  |  |  |  |  |  |  | binds | binds |  | no binding
7 | MH6 (antibody, V domains shown, Designer clone, human IgG4(S228P)/Ckappa IgG) VH: QVQLVQSGAEVKKPGSSVKVSCKASGYTFSSYYMIWVRQAPGQGLEWMGDINPYNGGANYAQKFQGRVTITADESTSTAYMELSSLRSEDTAVYYCAREGPYFSNLYVMDYWGQGTLVTVSS VL: EIVLTQSPATLSLSPGERATLSCRASQSVSYEGENYLAWYQQKPGQAPRLLIYAASNRATGIPARFSGSGSGTDFTLTISSLEPEDFAVYYCQLSNQDLLTFGGGTKVEIK | 0.88 | 0.0012 | 1.3e+06 | 1.3 | 0.00064 | 510000 |  |  |  |  |  |  | 7.74 |  |  | > 2 | 
8 | MH22 (antibody, human IgG4, V domains shown, Deimmunized MH5 derivative, human IgG4(S228P)/Ckappa IgG) VH: QVQLVQSGAEVKKPGSSVKVSCKASGYTFSSHYMIWVRQAPGQGLEWMGDINPYNGGANYAQKFQGRVTITADESTSTAYMELSSLRSEDTAVYYCAREGPYFSNLYVMDYWGQGTLVTVSS VL: EIVLTQSPATLSLSPGERATLSCRASQSVSYEGENYLNWYQQKPGQAPRSAIYAASNRATGIPARFSGSGSGTDFTLTISSPEPEDFAVYYCQLSNEDLLTFGGGTKVEIK |  |  |  |  |  |  |  |  |  |  |  |  |  | binds | binds |  | no binding
9 | MH23 (antibody, human IgG4, V domains shown, Deimmunized MH5 derivative, human IgG4(S228P)/Ckappa IgG) VH: QVQLVQSGAEVKKPGSSVKVSCKASGYTFSSHYMIWVRQAPGQGLEWMGDINPYNGGANYAQKFQGRVTITADESTSTAYMELSSLRSEDTAVYYCAREGPYFSNLYVMDYWGQGTLVTVSS VL: EIVLTQSPATLSLSPGERATLSCRASQSVSYEGENYLNWYQQKPGQAPRAAIYAASNRATGIPARFSGSGSGTDFTLTISSPEPEDFAVYYCQLSNEDLLTFGGGTKVEIK |  |  |  |  |  |  |  |  |  |  |  |  |  | binds | binds |  | no binding
